Test results as given in patent US20250121087A1, “ANTIBODY-DRUG CONJUGATES COMPRISING ANTI-B7-H3 ANTIBODIES” (priority 2020, published 2025).

T1: B7-H3 (Homo sapiens, UniProt Q5ZPR3)
T1 sequence (Q5ZPR3 29-534): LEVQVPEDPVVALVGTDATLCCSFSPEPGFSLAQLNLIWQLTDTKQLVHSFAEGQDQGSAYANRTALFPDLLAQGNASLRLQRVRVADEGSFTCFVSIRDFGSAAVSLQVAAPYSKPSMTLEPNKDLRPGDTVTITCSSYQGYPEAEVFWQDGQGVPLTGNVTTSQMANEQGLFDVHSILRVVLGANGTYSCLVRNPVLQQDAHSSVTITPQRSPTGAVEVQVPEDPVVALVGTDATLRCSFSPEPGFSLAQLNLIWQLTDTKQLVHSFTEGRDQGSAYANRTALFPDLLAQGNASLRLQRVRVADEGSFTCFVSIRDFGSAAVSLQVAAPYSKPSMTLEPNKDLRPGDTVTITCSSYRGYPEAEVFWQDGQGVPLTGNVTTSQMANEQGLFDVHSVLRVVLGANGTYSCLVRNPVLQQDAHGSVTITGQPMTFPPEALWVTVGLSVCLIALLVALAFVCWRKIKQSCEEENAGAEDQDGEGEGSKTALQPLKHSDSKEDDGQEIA

T2: human 2Ig B7-H3 (Homo sapiens, UniProt Q5ZPR3)
T2 construct: purchased Acrobiosystems
T2 sequence (Q5ZPR3 29-316 isoform Q5ZPR3-2 limits assumed): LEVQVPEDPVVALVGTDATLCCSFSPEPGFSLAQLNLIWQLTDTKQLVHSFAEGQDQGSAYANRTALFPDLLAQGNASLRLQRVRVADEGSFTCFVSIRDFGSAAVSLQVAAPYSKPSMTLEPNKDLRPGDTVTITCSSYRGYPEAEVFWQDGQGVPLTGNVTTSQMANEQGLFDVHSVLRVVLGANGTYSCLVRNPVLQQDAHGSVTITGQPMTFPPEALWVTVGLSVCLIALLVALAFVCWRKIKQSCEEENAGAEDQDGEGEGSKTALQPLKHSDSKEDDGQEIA

T3: human 4Ig B7-H3 (Homo sapiens, UniProt Q5ZPR3)
T3 construct: purchased Y-Biologics Inc
T3 sequence (Q5ZPR3 29-534): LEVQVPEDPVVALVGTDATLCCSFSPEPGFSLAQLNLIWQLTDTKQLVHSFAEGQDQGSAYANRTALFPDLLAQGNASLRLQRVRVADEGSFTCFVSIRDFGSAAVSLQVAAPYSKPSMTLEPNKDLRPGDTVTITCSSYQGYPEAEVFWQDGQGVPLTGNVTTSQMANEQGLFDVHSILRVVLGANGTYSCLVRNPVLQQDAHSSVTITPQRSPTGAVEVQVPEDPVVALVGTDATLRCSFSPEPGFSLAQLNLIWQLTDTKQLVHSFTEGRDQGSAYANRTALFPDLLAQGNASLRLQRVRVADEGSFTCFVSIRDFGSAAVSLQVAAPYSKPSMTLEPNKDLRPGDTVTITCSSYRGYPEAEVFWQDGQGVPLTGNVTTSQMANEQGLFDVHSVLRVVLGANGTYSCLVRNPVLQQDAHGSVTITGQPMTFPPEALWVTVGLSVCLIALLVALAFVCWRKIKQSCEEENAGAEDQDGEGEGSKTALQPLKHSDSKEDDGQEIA

T4: mouse B7-H3 (Mus musculus, UniProt Q8VE98)
T4 construct: purchased Sino biological Inc
T4 sequence (Q8VE98 29-316): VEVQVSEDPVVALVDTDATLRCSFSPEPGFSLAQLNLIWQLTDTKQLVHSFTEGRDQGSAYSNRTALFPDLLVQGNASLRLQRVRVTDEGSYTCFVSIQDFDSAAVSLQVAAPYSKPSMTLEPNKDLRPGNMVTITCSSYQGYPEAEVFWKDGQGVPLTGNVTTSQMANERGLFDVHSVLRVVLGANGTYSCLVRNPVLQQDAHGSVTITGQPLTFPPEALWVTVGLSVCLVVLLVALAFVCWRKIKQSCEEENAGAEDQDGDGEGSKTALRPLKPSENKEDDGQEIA


Assays:
[1] = target: T1, B7-H3; conditions: Table 1, development state of B7-H3 ADC; cited from earlier work
[2] = target: T2, human 2Ig B7-H3; test: Biacore (SPR) binding kinetics, human 2Ig B7-H3; conditions: analyte Human 2IgB7-H3, antibody as immobilized ligand
Description: (§1) The binding affinity of the purified anti-B7-H3 monoclonal antibodies was determined by BLI-based OCTET or SPR-based Biacore. Further the binding kinetics of the antibodies binding to human, cynomolgus monkey and mouse B7-H3 antigen are shown in Table 37.
(§2) A Biacore 8K (GE Life science) instrument was used to measure the binding kinetics about several B7-H3 variants (analyte) binding to various mAbs (ligands). Antibodies were captured onto the immobilized anti-human Fc antibody (GE Life science). Anti-Fc antibodies were immobilized to approximately 7,000 RU on CM5 sensor chip using a standard amine coupling method on both active cell and reference cell. For binding kinetic measurements, the HBS-EP+ was used for running buffer (10 mM Hepes, pH7.4, 150 mM NaCl, 3 mM EDTA, 0.05% polysorbate20). Anti-B7-H3 antibodies were diluted to 0.5 ug/mL in running buffer and injected for 110 s on active cells only. After capturing ligand, various B7-H3 antigens were analyzed for 120 s and the dissociation was monitored for 600 s at a flow rate of 30 ul/min. […] Kinetic information was calculated by fitting data to a 1:1 binding model using Biacore Insight Evaluation software (GE Life Science) to determine ka (association constant), kd (dissociation constant), and KD (equilibrium dissociation constant).

[3] = target: T3, human 4Ig B7-H3; test: Biacore (SPR) binding kinetics, human 4Ig B7-H3; conditions: analyte Human 4IgB7-H3, antibody as immobilized ligand
Description: as §1, §2

[4] = target: T4, mouse B7-H3; test: Biacore (SPR) binding kinetics, mouse B7-H3; conditions: analyte Mouse B7-H3, antibody as immobilized ligand
Description: as §1, §2

[5] = system: cynomolgus monkey B7-H3; test: Biacore (SPR) binding kinetics, cynomolgus monkey B7-H3; conditions: analyte Cyno B7-H3, antibody as immobilized ligand
Description: as §1, §2

Row | Molecule | Kd [1] | Ka [2] | Kd [2] | Ka [3] | Kd [3] | Ka [4] | Kd [4] | Ka [5] | Kd [5]
1 | Enoblituzumab (antibody, chains of the INN, looked up) heavy: EVQLVESGGGLVQPGGSLRLSCAASGFTFSSFGMHWVRQAPGKGLEWVAYISSDSSAIYYADTVKGRFTISRDNAKNSLYLQMNSLRDEDTAVYYCGRGRENIYYGSRLDYWGQGTTVTVSSASTKGPSVFPLAPSSKSTSGGTAALGCLVKDYFPEPVTVSWNSGALTSGVHTFPAVLQSSGLYSLSSVVTVPSSSLGTQTYICNVNHKPSNTKVDKRVEPKSCDKTHTCPPCPAPELVGGPSVFLLPPKPKDTLMISRTPEVTCVVVDVSHEDPEVKFNWYVDGVEVHNAKTKPPEEQYNSTLRVVSVLTVLHQDWLNGKEYKCKVSNKALPAPIEKTISKAKGQPREPQVYTLPPSREEMTKNQVSLTCLVKGFYPSDIAVEWESNGQPENNYKTTPLVLDSDGSFFLYSKLTVDKSRWQQGNVFSCSVMHEALHNHYTQKSLSLSPG light: DIQLTQSPSFLSASVGDRVTITCKASQNVDTNVAWYQQKPGKAPKALIYSASYRYSGVPSRFSGSGSGTDFTLTISSLQPEDFATYYCQQYNNYPFTFGQGTKLEIKRTVAAPSVFIFPPSDEQLKSGTASVVCLLNNFYPREAKVQWKVDNALQSGNSQESVTEQDSKDSTYSLSSTLTLSKADYEKHKVYACEVTHQGLSSPVTKSFNRGEC | 7 nM | – | – | – | – | – | – | – | –
2 | AB2 (antibody, V domains shown) VH: QVQLVESGAEVKKPGASVKLSCKASGYTFSSYWMHWVRQAPGQRLEWMGEINPGNGHTNYNEKFKSRVTITVDKSASTAYMELSSLRSEDTAVYYCVADPRRPKVPTALFVYWGQGTLVTVSS VL: DIQMTQSPSSVSASVGDRVTISCRASQGIGTWLAWYQQKPGKAPRLLIYAASSLDSGVPSRFSASGSGTDFTLTISSLQPEDFATYYCQQAINFPITFGQGTRLEIK | – | 206000 M⁻¹ s⁻¹ | 0.00515 s⁻¹ | 446000 M⁻¹ s⁻¹ | 0.000199 s⁻¹ | 408000 M⁻¹ s⁻¹ | 0.0193 s⁻¹ | 481000 M⁻¹ s⁻¹ | 0.000442 s⁻¹
